The source of these data is US20220324953A1 (JIANGSU HENGRUI MEDICINE, published 2022).

Test [1] deals with T1, Mouse CTGF protein-His tag (mouse, UniProt P29268 26-348).
T1 construct: C-terminal His tag; also called mouse CTGF-his protein; mouse CTGF fusion protein
T1 sequence: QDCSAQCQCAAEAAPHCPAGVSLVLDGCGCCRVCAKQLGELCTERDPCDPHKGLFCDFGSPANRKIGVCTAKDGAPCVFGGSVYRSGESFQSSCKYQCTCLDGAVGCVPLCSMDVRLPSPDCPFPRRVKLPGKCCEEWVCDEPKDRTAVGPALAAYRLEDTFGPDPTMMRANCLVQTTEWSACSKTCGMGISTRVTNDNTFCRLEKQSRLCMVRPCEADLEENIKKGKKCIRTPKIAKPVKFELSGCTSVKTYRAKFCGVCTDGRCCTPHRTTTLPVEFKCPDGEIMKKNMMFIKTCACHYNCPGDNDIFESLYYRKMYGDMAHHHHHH
Kind of test: ELISA, plate coated with mouse CTGF-his. Here is the method:
The binding activity of anti-mouse CTGF antibody to mouse CTGF protein was tested by ELISA assay. A 96-well microtiter plate was directly coated with the mouse CTGF fusion protein. The signal strength upon the addition of the antibody was used to determine the binding activity of the antibody to mouse CTGF. The specific experimental procedures were as follows:
The mouse CTGF-his protein was diluted with PBS, pH 7.4 (Shanghai Yuanpei, Cat No. B320) buffer to a concentration of 0.5 μg/ml, added into the 96-well microtiter plate (Corning, Cat No. CLS3590-100EA) at 50 μl/well, and incubated in an incubator at 37° C. for 2 hours. The liquid was removed, 250 μl/well blocking solution (5% skim milk (BD skim milk, Cat No. 232100) diluted in PBS) was added, and incubated in an incubator at 37° C. for 3 hours or at 4° C. overnight (16-18 hours) for blocking. After the blocking was finished, the blocking solution was removed, the plate was washed for 3 times with PBST buffer (PBS containing 0.1% Tween-20, pH 7.4), 50 μl/well of various concentrations of each of the test antibodies (antibodies purified from hybridoma or humanized antibodies) diluted with sample dilution solution were added, and incubated in an incubator at 37° C. for 1 hours. After the incubation was finished, the plate was washed for 3 times with PBST, 50 μl/well of HRP-labeled goat anti-mouse secondary antibody (Jackson Immuno Research, Cat No. 115-035-003) or goat anti-human secondary antibody (Jackson Immuno Research, Cat No. 109-035-003) diluted with sample dilution solution was added, and incubated at 37° C. for 1 hour. The plate was washed for 5 times with PBST, 50 μl/well of TMB chromogenic substrate (KPL, Cat No. 52-00-03) was added, incubated at room temperature for 5-10min, and 50 μl/well of 1 M H₂SO₄ was added to stop the reaction. The absorbance value was read by a microplate reader (Molecular Devices, VERSA max) at a wavelength of 450 nm, and the data was analyzed with GraphPad Prism 5. The binding of CTGF antibody to mouse CTGF protein was calculated as EC50 value.

In test [2] the target is T2, mouse CTGF (antigen of the Biacore assay) (mouse, UniProt P29268 26-348).
T2 construct: also called mouse CTGF protein
T2 sequence (looked up): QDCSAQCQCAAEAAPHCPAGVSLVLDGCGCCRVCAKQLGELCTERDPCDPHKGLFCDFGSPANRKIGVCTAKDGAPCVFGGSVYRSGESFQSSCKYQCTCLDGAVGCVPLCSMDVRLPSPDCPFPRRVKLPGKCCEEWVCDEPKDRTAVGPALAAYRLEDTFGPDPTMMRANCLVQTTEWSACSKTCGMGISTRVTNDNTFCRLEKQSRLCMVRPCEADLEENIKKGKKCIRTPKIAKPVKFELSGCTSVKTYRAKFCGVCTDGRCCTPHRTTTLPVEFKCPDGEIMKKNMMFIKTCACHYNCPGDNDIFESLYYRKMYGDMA
Briefly: Biacore, antibody captured on Protein A, mouse CTGF in flow, 1:1 fit. In short, it runs like this: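 Antibodies captured on a Protein A chip, with human or mouse CTGF flowed over in HBS-EP running buffer; association and dissociation recorded in real time. Surface regenerated with glycine-HCl pH 1.5 between cycles; kinetics fitted to a 1:1 model.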
(In general: Surface plasmon resonance follows binding to a sensor surface in real time, without labels.)

B1: Hu164-77wl (antibody, human IgG1, lambda, V domains shown)
VH: EVQLQESGPGLVKPSQTLSLTCTVSGFSISTFGVHWIRQHPGKGLEWIGVIWRRGGTDYNAAFMSRVTISKDTSKNQVSLKLSSVTAADTAVYYCARDGGFDYWGQGTTVTVSS
VL: ETVVTQEPSLTVSPGGTVTLTCRSSIGAVTTSNYANWVQQKPGQAFRGLIGGTSNRAPWTPARFSGSLLGGKAALTLSGVQPEDEAEYYCALWYSTHYVFGGGTKLTVLG
What is called EC50 is the concentration needed to bring the measured effect to its halfway point. Low values mean a more potent agent, high ones a less potent agent. The term Kd denotes the free concentration of one partner at which half of the binding sites on the other are occupied at equilibrium, for simple one-to-one binding. Low values mean tighter binding, high ones weaker binding. Usually koff stands for the rate constant with which the complex falls apart. A higher koff goes with a short-lived complex. Broadly, the kon is the second-order rate constant of association. Lower therefore signals slow association. Regarding B1, in test [1], it took 0.058 nM to reach a half-maximal effect (EC50). In test [2], this molecule yielded a Kd of 0.148 nM, a koff of 0.00883 s⁻¹ and a kon of 5.98e+07 M⁻¹ s⁻¹.

B2: Hu164-87wl (antibody, human IgG1, lambda, V domains shown)
VH: EVQLQESGPGLVKPSQTLSLTCTVSGFSISTFGVHWIRQHPGKGLEWLGVIWRRGGTDYNAAFMSRLTISKDTSKNQVSFKLSSVTAADTAVYYCARDGGFDYWGQGTTVTVSS
VL: ETVVTQEPSLTVSPGGTVTLTCRSSIGAVTTSNYANWVQQKPGQAFRGLIGGTSNRAPWTPARFSGSLLGGKAALTLSGVQPEDEAEYYCALWYSTHYVFGGGTKLTVLG
For B2, in test [1], it took 0.067 nM to reach a half-maximal effect (EC50). Moreover, in test [2], binding was put at a Kd of 0.084 nM, the koff stood at 0.0044 s⁻¹ and the kon came out at 5.24e+07 M⁻¹ s⁻¹.

B3: Hu147-12wk (antibody, human IgG1, kappa, V domains shown)
VH: EVQLVESGGGLVQPGGSLRLSCAASGFTFSTYAMNWVRQAPGKGLEWVGRIRTKSNNYATYYADSVKDRFTISRDDSKNSLYLQMNSLKTEDTAVYYCVETGFAYWDQGTLVTVSS
VL: EIVLTQSPATLSLSPGERATLSCSASSSVSYMHWFQQKPGQSPKLLIYSTSNLASGIPARFSGSGSGTDYTLTISSLEPEDFAVYYCQQRSSYPLTFGQGTKLEIKR
Turning to B3, the EC50 in test [1] is 0.249 nM. In addition, in test [2], the Kd is 3.09 nM, the dissociation rate constant (koff) was found to be 0.116 s⁻¹ and the kon was 3.75e+07 M⁻¹ s⁻¹.

B4: Hu164-68wl (antibody, human IgG1, lambda, V domains shown)
VH: EVTLKESGPVLVKPTETLTLTCTVSGFSLSTFGVHWIRQPPGKGLEWLGVIWRRGGTDYNAAFMSRLTISKDTSKSQVVFTMTNMDPVDTATYYCARDGGFDYWGQGTTVTVSS
VL: ETVVTQEPSFSVSPGGTVTLTCRSSIGAVTTSNYANWVQQTPGQAFRGLIGGTSNRAPGVPDRFSGSILGNKAALTITGAQADDESDYYCALWYSTHYVFGGGTKLTVLG
On to B4, for which the 50% effective concentration (EC50) in test [1] was 0.065 nM. In test [2], the Kd is 0.133 nM, the koff worked out at 0.0076 s⁻¹ and the kon was determined as 5.7e+07 M⁻¹ s⁻¹.

B5: Hu164-69wl (antibody, human IgG1, lambda, V domains shown)
VH: EVTLKESGPVLVKPTETLTLTCTVSGFSLSTFGVHWIRQPPGKGLEWLGVIWRRGGTDYNAAFMSRLTISKDTSKSQVVFTMTNMDPVDTATYYCARDGGFDYWGQGTTVTVSS
VL: ESVVTQPPSVSGAPGQRVTISCRSSIGAVTTSNYANWVQQLPGTAFKGLIGGTSNRAPGVPDRFSGSKSGTSASLAITGLQAEDEADYYCALWYSTHYVFGGGTKLTVLG
Consider B5, for which the EC50 in test [1] was 0.059 nM. For the same molecule, in test [2], the Kd was determined as 0.126 nM, the off-rate constant (koff) worked out at 0.00774 s⁻¹ and the kon was determined as 6.17e+07 M⁻¹ s⁻¹.

B6: Hu164-67wl (antibody, human IgG1, lambda)
heavy: not shown
light: ETVVTQEPSLTVSPGGTVTLTCRSSIGAVTTSNYANWVQQKPGQAFRGLIGGTSNRAPWTPARFSGSLLGGKAALTLSGVQPEDEAEYYCALWYSTHYVFGGGTKLTVLGQPKANPTVTLFPPSSEELQANKATLVCLISDFYPGAVTVAWKADGSPVKAGVETTKPSKQSNNKYAASSYLSLTPEQWKSHRSYSCQVTHEGSTVEKTVAPTEC
As to B6, the EC50 in test [1] was 0.049 nM. Also, in test [2], the Kd was found to be 0.0184 nM, the off-rate constant (koff) was found to be 0.00117 s⁻¹ and the kon worked out at 6.36e+07 M⁻¹ s⁻¹.

B7: Hu164-57wl (antibody, human IgG1, lambda, V domains shown)
VH: EVTLKESGPVLVKPTETLTLTCTVSGFSLSTFGVHWIRQPPGKALEWLAVIWRRGGTDYNAAFMSRLTISKDTSKSQVVLTMTNMDPVDTATYYCARDGGFDYWGQGTTVTVSS
VL: ETVVTQEPSLTVSPGGTVTLTCRSSIGAVTTSNYANWVQQKPGQAFRGLIGGTSNRAPWTPARFSGSLLGGKAALTLSGVQPEDEAEYYCALWYSTHYVFGGGTKLTVLG
For B7, the 50% effective concentration (EC50) in test [1] is 0.041 nM. In test [2], the affinity, expressed as Kd, was 0.0322 nM; the off-rate (koff) amounted to 0.00237 s⁻¹; the kon is 7.35e+07 M⁻¹ s⁻¹.
